Patent publication US20250320252A1 (Scripps Research, published 2025)
Where two headings read alike, the source gives them in different places. Bridge positions count the residues as written; N and C are the ends. Square brackets hold non-standard residues; d marks the D form. Ends that are not written are not given here. C20L5A = not defined here; L5A(S) = not defined here; Nle = CCCC[C@H](N)C(=O)O; L5A = not defined here; K5 = not defined here; Aib = CC(C)(N)C(=O)O

T1: human GIP receptor (human, UniProt P48546 22-466)
T1 sequence (looked up): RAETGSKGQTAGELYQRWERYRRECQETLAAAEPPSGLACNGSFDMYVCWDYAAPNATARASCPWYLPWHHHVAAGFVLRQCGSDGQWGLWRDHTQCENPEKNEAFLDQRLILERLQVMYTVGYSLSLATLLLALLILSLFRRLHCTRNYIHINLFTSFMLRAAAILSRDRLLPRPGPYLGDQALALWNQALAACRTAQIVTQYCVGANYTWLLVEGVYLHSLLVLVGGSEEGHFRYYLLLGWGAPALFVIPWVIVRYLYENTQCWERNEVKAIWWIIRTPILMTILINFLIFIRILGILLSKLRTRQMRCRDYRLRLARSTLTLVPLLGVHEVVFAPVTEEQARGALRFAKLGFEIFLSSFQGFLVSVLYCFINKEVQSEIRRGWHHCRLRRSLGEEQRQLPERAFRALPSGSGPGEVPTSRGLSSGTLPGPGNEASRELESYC

T2: dog GLP1R (dog, UniProt A0A8I3NUR9 25-464)
T2 sequence: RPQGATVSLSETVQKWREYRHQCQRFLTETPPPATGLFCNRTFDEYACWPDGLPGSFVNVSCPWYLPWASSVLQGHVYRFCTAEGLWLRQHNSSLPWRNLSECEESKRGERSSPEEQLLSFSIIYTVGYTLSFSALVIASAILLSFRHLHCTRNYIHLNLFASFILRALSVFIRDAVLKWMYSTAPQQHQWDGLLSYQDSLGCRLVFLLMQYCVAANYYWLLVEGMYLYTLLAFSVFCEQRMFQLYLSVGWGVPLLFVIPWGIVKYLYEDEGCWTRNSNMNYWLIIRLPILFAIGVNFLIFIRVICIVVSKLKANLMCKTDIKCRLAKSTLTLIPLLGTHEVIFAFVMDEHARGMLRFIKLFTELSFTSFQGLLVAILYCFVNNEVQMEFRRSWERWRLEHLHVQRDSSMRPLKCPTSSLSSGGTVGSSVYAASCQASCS

T3: mouse GIPR (mouse, UniProt Q0P543 19-460)
T3 sequence (looked up): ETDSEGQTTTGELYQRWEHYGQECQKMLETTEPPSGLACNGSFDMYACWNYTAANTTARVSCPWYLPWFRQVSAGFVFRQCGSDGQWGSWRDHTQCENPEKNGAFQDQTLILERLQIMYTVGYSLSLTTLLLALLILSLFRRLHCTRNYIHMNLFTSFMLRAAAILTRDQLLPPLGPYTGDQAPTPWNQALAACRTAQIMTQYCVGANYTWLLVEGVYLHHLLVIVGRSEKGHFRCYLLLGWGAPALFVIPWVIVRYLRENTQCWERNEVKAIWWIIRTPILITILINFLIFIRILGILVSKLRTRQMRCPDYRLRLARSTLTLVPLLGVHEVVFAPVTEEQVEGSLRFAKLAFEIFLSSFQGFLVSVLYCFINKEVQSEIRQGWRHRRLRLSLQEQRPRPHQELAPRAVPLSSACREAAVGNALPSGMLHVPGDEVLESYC

T4: cynomolgus monkey GIPR (cynomolgus monkey, UniProt A0A2K5VD75 22-466)
T4 sequence: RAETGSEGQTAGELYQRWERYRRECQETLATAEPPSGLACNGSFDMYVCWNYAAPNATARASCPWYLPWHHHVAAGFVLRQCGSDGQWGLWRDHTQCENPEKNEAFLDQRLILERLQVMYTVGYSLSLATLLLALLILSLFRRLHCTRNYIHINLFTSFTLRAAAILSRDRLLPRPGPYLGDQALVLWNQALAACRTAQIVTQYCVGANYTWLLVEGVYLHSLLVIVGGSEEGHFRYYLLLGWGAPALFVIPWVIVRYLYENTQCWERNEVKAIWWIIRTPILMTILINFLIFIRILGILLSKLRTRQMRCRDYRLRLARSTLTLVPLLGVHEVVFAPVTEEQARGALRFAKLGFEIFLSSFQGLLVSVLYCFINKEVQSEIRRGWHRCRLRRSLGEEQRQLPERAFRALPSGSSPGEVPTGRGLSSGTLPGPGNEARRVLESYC


Tests used:
Assay in all cases: cell-based or functional assay
[1] = biological target: T5, human GLP-1 receptor (human, UniProt P43220 24-463)
[2] = biological target: T1, human GIP receptor
[3] = biological target: T5, human GLP-1 receptor; remark: listed apart in the source
[4] = biological target: T1, human GIP receptor; remark: listed apart in the source
[5] = biological target: T5, human GLP-1 receptor; remark: listed apart in the source
[6] = biological target: T1, human GIP receptor; remark: listed apart in the source
[7] = biological target: T5, human GLP-1 receptor; remark: listed apart in the source
[8] = biological target: T1, human GIP receptor; remark: listed apart in the source
[9] = biological target: T1, human GIP receptor; remark: listed apart in the source
[10] = biological target: cynomolgus monkey GLP1R (cynomolgus monkey, UniProt F8V479 24-463)
[11] = biological target: T2, dog GLP1R
[12] = biological target: T3, mouse GIPR
[13] = biological target: dog GIPR (dog)
[14] = biological target: T4, cynomolgus monkey GIPR

Row | Binder | EC50 [nM] of receptor-mediated cAMP synthesis [1] [nM] | EC50 [nM] of receptor-mediated cAMP synthesis [2] [nM] | EC50 [nM] of receptor-mediated cAMP synthesis [6] [nM] | EC50 of receptor-mediated cAMP synthesis, GIPR (nM), 02/19 [8] [nM] | EC50 of receptor-mediated cAMP synthesis, GIPR (nM), 03/25 [8] [nM] | EC50 of receptor-mediated cAMP synthesis, GIPR (nM), 03/26 [8] [nM] | EC50 of receptor-mediated cAMP synthesis, GIPR (nM), average [8] [nM] | further results
1 | Y[Aib]EGTFISDVSIYCDKQAA[Aib]CFVNWLIAGGPSSGAPPPS-NH2 (linker 14-21 via C20L5A; not fully specified; reading uncertain) [7I, 10V, 27I, C(14-21) - C20L5A] | ~13700 | 303 | – | – | – | – | – | –
2 | Y[Aib]EGTFTSDYSIYCDKQAA[Aib]CFVNWLIAGGPSSGAPPPS-NH2 (linker 14-21 via L5A; not fully specified; reading uncertain) [27I, C(14-21)-L5A] | 0.04 | 0.03 | – | – | – | – | – | –
3 | Y[Aib]EGTFTSDYSIYKDKQAA[Aib]KFVNWLLAGGPSSGAPPPS-NH2 (bridge 14-21; not fully specified (bridges); also: K4 staple carries PEG-fatty acid) [mCMD307 (2050-K4)] | 0.03 | 0.01 | 0.01 | 0.04 | 0.01 | 0.01 | 0.02 | EC50 [nM] of receptor-mediated cAMP synthesis [3]: 0.01 nM; EC50 [nM] of receptor-mediated cAMP synthesis [4]: 0.02 nM; EC50 [nM] of receptor-mediated cAMP synthesis [5]: 0.03 nM; EC50 of receptor-mediated cAMP synthesis, GLP1R (nM), 02/19 [7]: 0.01 nM; EC50 of receptor-mediated cAMP synthesis, GLP1R (nM), 3/25 [7]: 0.01 nM; EC50 of receptor-mediated cAMP synthesis, GLP1R (nM), 03/26 [7]: 0.01 nM; EC50 of receptor-mediated cAMP synthesis, GLP1R (nM), average [7]: 0.01 nM
4 | Y[Aib]EGTFTSDYSIYCDKQAA[Aib]CFVNWLIAGGPSSGAPPPS-NH2 (linker 14-21 via C20L5A; not fully specified; reading uncertain) [mCMV266 (27I, C(14-21)-C20L5A)] | 0.05 | 0.07 | – | 0.08 | 0.06 | 0.06 | 0.07 | EC50 of receptor-mediated cAMP synthesis, GLP1R (nM), 02/19 [7]: 0.03 nM; EC50 of receptor-mediated cAMP synthesis, GLP1R (nM), 3/25 [7]: 0.05 nM; EC50 of receptor-mediated cAMP synthesis, GLP1R (nM), 03/26 [7]: 0.06 nM; EC50 of receptor-mediated cAMP synthesis, GLP1R (nM), average [7]: 0.05 nM
5 | Y[Aib]EGTFISDVSIYCDKQAA[Aib]CFVNWLIAGGPSSGAPPPS-NH2 (linker 14-21 via L5A; not fully specified; reading uncertain) [7I, 10V, 27I, C(14-21) - L5A] | 83.9 | 12.6 | – | – | – | – | – | –
6 | Y[Aib]EGTFTSDYSIYLDKCAA[Aib]EFVCWLIAGGPSSGAPPPS-NH2 (linker 17-24 via L5A(S); not fully specified; reading uncertain) [mCMZ371 (C(17-24)-L5A(S))] | – | – | – | – | – | – | – | In Vitro Potency GIPR EC50 [nM], 10% FBS [9]: 0.04 nM; In Vitro Potency GLP1R EC50 [nM], Cyno [10]: 0.11 nM; In Vitro Potency GLP1R EC50 [nM], Dog [11]: 1.34 nM; In Vitro Potency GIPR EC50 [nM], Mouse [12]: 0.27 nM; In Vitro Potency GIPR EC50 [nM], Dog [13]: 0.47 nM
7 | H-Y[Aib]EGTFT[dS]DY[dS]IYKDKQAA[Nle]KFVAWLLAGGPSSGAPPPS-NH2 (linker 14-21 via K5; not fully specified; reading uncertain) [ZA-43 - K5] | – | – | – | – | – | – | – | EC50 [nM] of receptor-mediated cAMP synthesis [3]: 3.74 nM; EC50 [nM] of receptor-mediated cAMP synthesis [4]: 15.7 nM
8 | Y[Aib]EGTFTSDYSIYLDKCAA[Aib]EFVCWLLAGGPSSGAPPPS-NH2 (linker 17-24 via L5A; not fully specified; reading uncertain) [C(17-24)-L5A] | – | – | 0.05 | – | – | – | – | EC50 [nM] of receptor-mediated cAMP synthesis [5]: 0.11 nM
9 | Y[Aib]EGTFTSDYSIYLDKCAA[Aib]EFVCWLLAGGPSSGAPPPS-NH2 (linker 17-24 via C20L5A; not fully specified; reading uncertain) [C(17-24)-C20L5A] | – | – | 0.05 | 0.04 | 0.02 | 0.03 | 0.03 | EC50 [nM] of receptor-mediated cAMP synthesis [5]: 0.11 nM; EC50 of receptor-mediated cAMP synthesis, GLP1R (nM), 02/19 [7]: 0.07 nM; EC50 of receptor-mediated cAMP synthesis, GLP1R (nM), 3/25 [7]: 0.1 nM
10 | YAEGTFISDYSIAMDKIHQQDFVNWLLAQKGKKNDWKHNITQ-NH2 (ligand) [wild-type human GIP] | – | – | – | – | – | – | – | In Vitro Potency GIPR EC50 [nM], Cyno [14]: 0.69 nM; In Vitro Potency GIPR EC50 [nM], Dog [13]: 0.7 nM
11 | Y[Aib]EGTFTSDYSIYCDKQAA[Aib]CFVNWLLAGGPSSGAPPPS-NH2 (linker 14-21 via L5A; not fully specified; reading uncertain) [mCMC759 (C(14-21)-L5A)] | – | 0.03 | 0.03 | – | – | – | – | –
12 | Y[Aib]EGTFTSDYSIYLDKCAQ[Aib]AFVCWLIAQGPSSGAPPPS-NH2 (linker 17-24 via C20L5A; not fully specified; reading uncertain) [19Q, 21A, 27I, 29Q, C(17-24) - C20L5A] | – | – | 0.02 | – | – | – | – | –
13 | Y[Aib]EGTFTSDYSIYCDKQAA[Aib]CFVNWLLAGGPSSGAPPPS-NH2 (linker 14-21 via C20L5A; reading uncertain) [C(14-21)-C20L5A] | – | 0.05 | – | 0.07 | 0.04 | 0.04 | 0.05 | –
